{"source": "patent US20240390418A1", "about": "(MINERVA BIOTECHNOLOGIES, published 2024)", "binders": {"B1": {"name": "mouse monoclonal antibody MNC2 (antibody, V domains shown)", "VH": "EVQLEESGGGLVKPGGSLKLSCAASGFTFSGYAMSWVRQTPEKRLEWVATISSGGTYIYYPDSVKGRFTISRDNAKNTLYLQMSSLRSEDTAMYYCARLGGDNYYEYFDVWGAGTTVTVSS", "VL": "DIVITQSTASLGVSLGQRATISCRASKSVSTSGYSYMHWYQQRPGQPPKLLIYLASNLESGVPARFSGSGSGTDFTLNIHPVEEEDAATYYCQHSRELPFTFGGGTKLEIKR", "notes": "Mouse monoclonal raised against the PSMGFR peptide; also called Min-C2; MNC2-scFv (label in some tissue legends)"}, "B2": {"name": "N-10 peptide (peptide)", "peptide": "QFNQYKTEAASRYNLTISDVSVSDVPFPFSAQSGA", "notes": "also called PSMGFR N-10; PSMGFR minus 10 amino acids from the N-terminus"}, "B3": {"name": "monoclonal antibody 25E6 (antibody, V domains shown)", "VH": "EVQLVESGGDLVKPGGSLKLSCAASGFTFSSYGMSWVRQTPDKRLEWVATISNGGRHTFYPDSVKGRFTISRDNAKNTLYLQMSSLKSEDTAMYLCVRQTGTEGWFAYWGQGTLVTVSA", "VL": "not shown", "notes": "Raised against PSMGFR; also called MN25E6; anti-PSMGFR antibody 25E6"}, "B4": {"name": "monoclonal antibody H11 (antibody, V domains shown)", "VH": "EVVLVESGGGLVEPGGSLKLSCVASGFAFSTFAMSWIRQTPEKRLEWVAAISNGGGYTYYPDTLKGRFTISRDNAKNTLYLQMSSLRSEDTAVYYCARRYYDLYFDLWGQGTSLIVSS", "VL": "DILMTQTPLSLPVSLGDQASISCRSSQNIVHSNGNTYLEWYLQKPGQSPKLLIYKVSNRFSGVPDRFSGSGSGTDFTLKISRVEAEDLGVYYCFQDSHVPLTFGAGTRLELK", "notes": "Raised against PSMGFR"}, "B5": {"name": "monoclonal antibody 5C6F3 (antibody, V domains shown)", "VH": "EVMLVESGGGLVKPGGSLKLSCAASGFTFSTYAMSWVRQTPEKRLEWVAAISNGGGYTYYPDSLKGRFTISRDNAKNTLYLQMSSLRSEDTATYYCARRYYDHYFDYWGQGTALTVSS", "VL": "B4 VL with I2V, N28T, R108K", "notes": "Raised against PSMGFR; also called MN5C6F3; anti-PSMGFR antibody 5C6F3"}, "B6": {"name": "monoclonal antibody 45C11 (antibody, V domains shown)", "VH": "EVQLQQSGADLVKPGASVKLSCTASGFNIKDTFMHWVKQRPEQGLEWIGRIDPANGNTKYDPKFQGKATITADTSSNTAYLQLSSLTSEDTAVYYCAKPYGNYGYYYALDYWGQGTSVTVSS", "VL": "DVQITQSPSYLAASPGETITINCRASKSISKYLAWYQEKPGKTNKLLIYSGSTLQSGIPSRFSGSGSGTDFTLTISSLEPEDFAMYYCQQHNEFPWTFGGGTKLEIK", "notes": "Raised against the N+20/C-27 peptide; also called N+20/C-27 antibody 45C11"}}, "key": {"[1]": {"target": "T1, MUC1* expressed on HCT-116 cells transfected with MUC1* (extra cellular domain is just the PSMGFR sequence) (Homo sapiens (Human), UniProt P15941 1110-1255)", "T1 construct": "In Western blot rows the same protein stood denatured in cell lysate; also called HCT-MUC1*; HCT-FLR", "T1 sequence": "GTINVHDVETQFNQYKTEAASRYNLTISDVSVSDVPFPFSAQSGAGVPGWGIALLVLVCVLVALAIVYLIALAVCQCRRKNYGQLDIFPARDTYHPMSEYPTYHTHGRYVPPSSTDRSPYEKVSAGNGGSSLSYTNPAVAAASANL", "assay": "flow cytometry, HCT-116 cells transfected with MUC1* (FIG. 35B)"}, "PSMGFR peptide [2]": {"target": "T2, PSMGFR peptide", "T2 construct": "also called MUC1* peptide", "T2 peptide": "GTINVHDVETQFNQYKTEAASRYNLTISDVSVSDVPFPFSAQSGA", "assay": "ELISA, peptide on plate (FIG. 2B)", "procedure": "FIGS. 2A-2I show results of ELISA assays. MUC1* peptides PSMGFR, PSMGFR minus 10 amino acids from the N-terminus aka N-10, or PSMGFR minus 10 amino acids from the C-terminus, aka C-10 are immobilized on the plate and the following are assayed for binding: NME7-AB (FIG. 2A), MNC2 monoclonal antibody (FIG. 2B), MNE6 monoclonal antibody (FIG. 2C), or dimeric NME1 (FIG. 2D). […] MUC1* peptides PSMGFR minus 10 amino acids from the N-terminus aka N-10, or PSMGFR minus 10 amino acids from the C-terminus, aka C-10, are immobilized on the plate and the following are assayed for binding: MNC3 (FIG. 2E) and MNC8 (FIG. 2F)."}, "N+20/C-27 peptide": {"target": "T3, N+20/C-27 peptide", "T3 peptide": "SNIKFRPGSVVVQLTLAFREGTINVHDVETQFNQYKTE", "assay": "ELISA, peptide on plate (FIG. 63)", "procedure": "ELISA assays were performed to determine if, in addition to recognizing their immunizing peptide, they recognized PSMGFR, N-10 or C-10. In addition, they were tested for their ability to bind to N+20/C-27, N+9/C-9. We first did the ELISA assay on our set of reference antibodies, MNC2, MNE6, which we know are cancer-specific plus MNC3, which we know recognizes stem cells and progenitor cells (FIG. 63A-63B). None of the reference antibodies bound to the N+20/C-27 peptide. MNC2 and MNE6 cannot bind to PSMGFR peptides with 27, 10 or 9 C-terminal deletions, however, MNC3 binds to C-10 and to N+9/C-9 peptides."}, "N-10 peptide [3]": {"target": "B2", "assay": "ELISA, peptide on plate (FIG. 2B-2C)"}, "C-10 peptide [4]": {"target": "T4, C-10 peptide", "T4 construct": "also called PSMGFR C-10; PSMGFR minus 10 amino acids from the C-terminus", "T4 peptide": "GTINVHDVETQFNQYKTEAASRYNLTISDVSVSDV", "assay": "ELISA, peptide on plate (FIG. 64)"}, "N+9/C-9 peptide": {"target": "T5, N+9/C-9 peptide", "T5 peptide": "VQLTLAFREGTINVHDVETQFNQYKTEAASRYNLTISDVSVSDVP", "assay": "ELISA, peptide on plate (FIG. 64)"}, "NME7AB": {"target": "T6, NME7AB (Homo sapiens (Human), UniProt Q9Y5B8 92-376)", "T6 construct": "NME7A in the text appears to be NME7AB; also called NM23-H7; NME7A", "T6 sequence": "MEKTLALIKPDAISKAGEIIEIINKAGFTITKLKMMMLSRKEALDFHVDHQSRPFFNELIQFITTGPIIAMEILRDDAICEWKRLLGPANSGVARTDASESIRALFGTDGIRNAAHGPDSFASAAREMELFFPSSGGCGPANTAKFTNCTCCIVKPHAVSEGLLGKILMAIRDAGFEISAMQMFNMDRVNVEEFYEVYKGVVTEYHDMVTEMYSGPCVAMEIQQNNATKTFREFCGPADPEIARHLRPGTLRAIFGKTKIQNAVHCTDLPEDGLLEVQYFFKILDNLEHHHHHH", "assay": "ELISA, peptide on plate (FIG. 2A-2D)"}, "[5]": {"target": "T1, MUC1* expressed on HCT-116 cells …", "assay": "denaturing Western blot of cell lysates (FIG. 72)", "procedure": "Antibodies were tested to determine whether they recognize a linear or a conformational epitope. Only antibodies that recognize a linear epitope work in Western blots when using denaturing gels. […] The antibodies tested for comparison are MNC2 and MNE6, which were known to only recognize a conformational epitope, SDIX which is a polyclonal antibody raised against PSMGFR and VU4H5, which is a commercially available monoclonal antibody that recognizes the tandem repeats of full-length MUC1 (FIG. 71A-71D). […] The SDIX polyclonal antibody recognizes HCT-MUC1* but not full-length MUC1 and VU4H5 only recognizes full-length MUC1. These same antibodies were also tested for their ability to work in Western blots of two breast cancer cell lines 1500, aka Zr-75-1, and T47D cells and show the same binding pattern (FIG. 71E-71H).\n(§1) Antibodies that were raised against the PSMGFR peptide were tested the same way in Western blots (FIG. 72A-72P). […] Antibodies that were raised against the N+20/C-27 peptide were tested the same way in Western blots (FIG. 73A-73J). […] Antibodies 1E4 and 45C11 may recognize a conformational epitope. Antibodies that were raised against the N+9/C-9 peptide were tested the same way in Western blots (FIG. 74A-74H). […] These antibodies may recognize a conformational epitope."}, "PSMGFR peptide [6]": {"target": "T2, PSMGFR peptide", "assay": "peptide ELISA, told in tissue legend"}, "N-10 peptide [7]": {"target": "B2", "assay": "peptide ELISA, told in tissue legend"}, "C-10 peptide [8]": {"target": "T4, C-10 peptide", "assay": "ELISA, peptide on plate (FIG. 201)"}, "N-10 peptide [9]": {"target": "B2", "assay": "ELISA, peptide on plate (FIG. 201B)", "procedure": "(§2) FIG. 201A-201C show graphs of ELISA assays to determine the binding of another set of antibodies generated by immunizing animals with the PSMGFR peptide. […] F3, B12, B2, B7, B9, 8C7F3 and H11 all bound to the PSMGFR peptide and to the N-10 peptide.\n(§3) This same ELISA assay was performed on the antibodies of the invention (FIGS. 64-66 and FIG. 201). Note that only 20A10 exactly matches the binding profile of MNC2 and MNE6. 25E6, 28F9 and 18G12 are all able to bind to the N-10 peptide. 18B4 is the only antibody raised against the PSMGFR peptide that requires the 10 most N-terminal amino acids of the peptide. The color of the bars for each antibody in the ELISA graph are color coded to match the deductive cognate sequence, or a portion thereof, of that antibody. In addition, another set of antibodies was assayed by ELISA (FIG. 201). Of this set, B12, B2, B7, B9, 8C7F3, and H11 bound to the PSMGFR peptide, bound to the N-10 peptide, but not to the C-10 peptide (FIG. 201). Although these antibodies were raised against the N+20/C-27 peptide, all but one, 45C11, still bind to the PSMGFR peptide, albeit at the N-terminal portion of PSMGFR."}, "PSMGFR peptide [10]": {"target": "T2, PSMGFR peptide", "assay": "ELISA, peptide on plate (FIG. 201A)", "procedure": "as §2, §3"}, "[11]": {"target": "T1, MUC1* expressed on HCT-116 cells …", "assay": "denaturing Western blot of cell lysates, longer exposure (FIG. 72G, 72H, 72O, 72P)", "source_text": "All these antibodies were raised against the PSMGFR peptide and bind to the PSMGFR peptide. […] FIG. 72A and FIG. 72I show 20A10. FIG. 72B and FIG. 72J show 25E6. FIG. 72C and FIG. 72K show 18B4. FIG. 72D and FIG. 72L show 18G12. FIG. 72E and FIG. 72M show 28F9. FIG. 72F and FIG. 72N show 3C2B1. FIG. 72G and FIG. 72O show 5C6F3. FIG. 72H and FIG. 72P show 5C6F3 wherein the blot has been exposed for a longer time period to render more visible the MUC1* specific bands.\nas §1"}, "PSMGFR peptide [12]": {"target": "T2, PSMGFR peptide", "assay": "peptide ELISA"}, "N-10 peptide [13]": {"target": "B2", "assay": "peptide ELISA"}, "PSMGFR peptide [14]": {"target": "T2, PSMGFR peptide", "assay": "ELISA, peptide on plate (FIG. 65)"}}, "note": "Positions count from the first letter of the chain named."}
{"binder": "B1", "values": [{"measurement": "binding result", "setting": "[1]", "result": "binds"}, {"measurement": "binding result", "setting": "PSMGFR peptide [2]", "result": "binds"}, {"measurement": "binding result", "setting": "N+20/C-27 peptide", "result": "no binding"}, {"measurement": "binding result", "setting": "N-10 peptide [3]", "result": "binds"}, {"measurement": "binding result", "setting": "C-10 peptide [4]", "result": "no binding"}, {"measurement": "binding result", "setting": "N+9/C-9 peptide", "result": "no binding"}]}
{"binder": "B2", "values": [{"measurement": "binding result", "setting": "NME7AB", "result": "binds"}]}
{"binder": "B3", "values": [{"measurement": "binding result", "setting": "[5]", "result": "binds"}, {"measurement": "binding result", "setting": "PSMGFR peptide [6]", "result": "binds"}, {"measurement": "binding result", "setting": "N-10 peptide [7]", "result": "binds"}, {"measurement": "binding result", "setting": "N+9/C-9 peptide", "result": "binds"}]}
{"binder": "B4", "values": [{"measurement": "binding result", "setting": "C-10 peptide [8]", "result": "no binding"}, {"measurement": "binding result", "setting": "N-10 peptide [9]", "result": "binds"}, {"measurement": "binding result", "setting": "PSMGFR peptide [10]", "result": "binds"}]}
{"binder": "B5", "values": [{"measurement": "binding result", "setting": "[11]", "result": "binds"}, {"measurement": "binding result", "setting": "PSMGFR peptide [12]", "result": "binds"}, {"measurement": "binding result", "setting": "N-10 peptide [13]", "result": "binds"}]}
{"binder": "B6", "values": [{"measurement": "binding result", "setting": "N-10 peptide [13]", "result": "no binding"}, {"measurement": "binding result", "setting": "PSMGFR peptide [14]", "result": "no binding"}]}
